We go through one protein from ChEMBL document CHEMBL1156528, “Acetyl-lysine analog peptides as mechanistic probes of protein deacetylases” (J Biol Chem, 2007).

Substrate in series [1]: C[C@H](NC(=O)[C@H](CCCCNC(N)=O)NC(=O)CNC(=O)CNC(=O)[C@@H](NC(=O)[C@H](CO)NC(=O)[C@@H](N)CCCCN)[C@@H](C)O)C(=O)N1CCC[C@H]1C(=O)N[C@@H](CCCNC(=N)N)C(=O)N[C@@H](CCCCN)C(=O)N[C@@H](CCC(N)=O)C(=O)O
The series can be described thus: (§1) Activity of Saccharomyces cerevisiae Hst2.

Substrate in series [2]: CC(=O)NCCCC[C@H](NC(=O)CNC(=O)CNC(=O)[C@@H](NC(=O)[C@H](CO)NC(=O)[C@@H](N)CCCCN)[C@@H](C)O)C(=O)N[C@@H](C)C(=O)N1CCC[C@H]1C(=O)N[C@@H](CCCNC(=N)N)C(=O)N[C@@H](CCCCN)C(=O)N[C@@H](CCC(N)=O)C(=O)O
The description is as §1.

B1: NAD-dependent protein deacetylase HST2 (Saccharomyces cerevisiae S288c), P53686 (protein)
chain: MSVSTASTEMSVRKIAAHMKSNPNAKVIFMVGAGISTSCGIPDFRSPGTGLYHNLARLKLPYPEAVFDVDFFQSDPLPFYTLAKELYPGNFRPSKFHYLLKLFQDKDVLKRVYTQNIDTLERQAGVKDDLIIEAHGSFAHCHCIGCGKVYPPQVFKSKLAEHPIKDFVKCDVCGELVKPAIVFFGEDLPDSFSETWLNDSEWLREKITTSGKHPQQPLVIVVGTSLAVYPFASLPEEIPRKVKRVLCNLETVGDFKANKRPTDLIVHQYSDEFAEQLVEELGWQEDFEKILTAQGGMGDNSKEQLLEIVHDLENLSLDQSEHESADKKDKKLQRLNGHDSDEDGASNSSSSQKAAKE
On to B1, for which the Vmax in series [1] amounted to 1.3 s⁻¹. Also, the results for the kcat in series [1] and in series [2] were 1.2 ×10⁻² /s and 0.2 s⁻¹, respectively.
